Measurements reported in paper PMC10786891, “Massively parallel profiling of RNA-targeting CRISPR-Cas13d”.
Numbering of substitutions follows the chain as printed.

Target: T1, EsCas13d, nuclease-dead (Eubacterium siraeum, UniProt B0MS50, R295A;H300A;R849A;H854A)
T1 sequence: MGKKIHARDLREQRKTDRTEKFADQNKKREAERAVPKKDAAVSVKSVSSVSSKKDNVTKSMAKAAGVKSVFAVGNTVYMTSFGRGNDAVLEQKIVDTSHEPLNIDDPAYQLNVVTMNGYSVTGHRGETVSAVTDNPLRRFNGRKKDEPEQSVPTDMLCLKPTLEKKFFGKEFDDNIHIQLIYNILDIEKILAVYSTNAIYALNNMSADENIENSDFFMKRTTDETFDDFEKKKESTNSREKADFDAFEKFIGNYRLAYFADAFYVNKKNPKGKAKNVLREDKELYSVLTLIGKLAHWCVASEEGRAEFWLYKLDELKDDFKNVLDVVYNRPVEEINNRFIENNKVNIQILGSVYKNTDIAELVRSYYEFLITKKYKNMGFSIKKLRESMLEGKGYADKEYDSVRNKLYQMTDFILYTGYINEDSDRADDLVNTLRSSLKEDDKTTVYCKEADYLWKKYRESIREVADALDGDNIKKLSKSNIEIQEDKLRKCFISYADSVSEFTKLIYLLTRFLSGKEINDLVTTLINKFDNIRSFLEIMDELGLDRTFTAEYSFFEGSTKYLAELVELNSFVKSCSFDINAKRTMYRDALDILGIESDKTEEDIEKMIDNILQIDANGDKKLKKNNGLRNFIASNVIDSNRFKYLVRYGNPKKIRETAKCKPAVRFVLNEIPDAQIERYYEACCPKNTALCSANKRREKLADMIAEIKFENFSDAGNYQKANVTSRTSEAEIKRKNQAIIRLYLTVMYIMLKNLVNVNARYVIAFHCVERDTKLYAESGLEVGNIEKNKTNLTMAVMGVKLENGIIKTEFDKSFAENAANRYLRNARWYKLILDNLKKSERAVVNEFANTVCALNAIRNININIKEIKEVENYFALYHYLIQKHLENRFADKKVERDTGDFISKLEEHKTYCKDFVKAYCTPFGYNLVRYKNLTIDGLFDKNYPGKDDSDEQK
Experiment: crRNA (strand 1, pre-loaded); Mg2+; 40 mM Tris-HCl pH 7.5, 150 mM NaCl, 6 mM MgCl2, 1 mM DTT, 0.1% Tween-20, 0.2 mg/ml BSA; 25 C; 10 min per concentration, then washed
Conditions: tags: His6-TwinStrep-SUMO cleaved; N-terminal SNAP kept (SNAP-Surface 488); label: 3' end held by stalled T7 RNA polymerase

B1: target 1 MT 5'PFS GGC 3'PFS GCU (mixed)
RNA 1: CACCCGUGCAAAAAUGCAGGGGUCUAAAACUGAGCGGAUAACCUCUCUAUGG
RNA 2: GGGAAUGGAUCCACAUCUACGAAUUCGGCCCAUAGAGAGGUUAUCCGCUCAGCUAGAUCGGAAGAGCACACGU
- Kd: 7.25 ± 1.75 nM

B2: target 1 MT 5'PFS CCA 3'PFS UAA (mixed)
RNA 1: B1 RNA 1
RNA 2: B1 RNA 2 with G27C, G28C, C29A, G52U, C53A, U54A
- Kd: 3.85 ± 1.9 nM

B3: target 1 MT 5'PFS UAU 3'PFS UUA (mixed)
RNA 1: B1 RNA 1
RNA 2: B1 RNA 2 with G27U, G28A, C29U, G52U, C53U, U54A
- Kd: 18.1 ± 3.15 nM

B4: target 1 MT 5'PFS GUG 3'PFS CCU (mixed)
RNA 1: B1 RNA 1
RNA 2: B1 RNA 2 with G28U, C29G, G52C
- Kd: 10.6 ± 1.1 nM

B5: target 1 MT 5'PFS UCG 3'PFS ACC (mixed)
RNA 1: B1 RNA 1
RNA 2: B1 RNA 2 with G27U, G28C, C29G, G52A, U54C
- Kd: 32.5 ± 14 nM

B6: target 1 MT 5'PFS GUG 3'PFS CUG (mixed)
RNA 1: B1 RNA 1
RNA 2: B1 RNA 2 with G28U, C29G, G52C, C53U, U54G
- Kd: 10.3 ± 0.6 nM

B7: target 1 MT 5'PFS CAU 3'PFS ACU (mixed)
RNA 1: B1 RNA 1
RNA 2: B1 RNA 2 with G27C, G28A, C29U, G52A
- Kd: 61.5 ± 26 nM

B8: target 1 MT 5'PFS GAG 3'PFS ACU (mixed)
RNA 1: B1 RNA 1
RNA 2: B1 RNA 2 with G28A, C29G, G52A
- Kd: 24.9 ± 4.75 nM

B9: target 1 MT 5'PFS GGA 3'PFS UGU (mixed)
RNA 1: B1 RNA 1
RNA 2: B1 RNA 2 with C29A, G52U, C53G
- Kd: 48 ± 13 nM

B10: target 1 MT 5'PFS UCG 3'PFS ACA (mixed)
RNA 1: B1 RNA 1
RNA 2: B1 RNA 2 with G27U, G28C, C29G, G52A, U54A
- Kd: 36 ± 8 nM

B11: target 1 MT 5'PFS GAG 3'PFS ACA (mixed)
RNA 1: B1 RNA 1
RNA 2: B1 RNA 2 with G28A, C29G, G52A, U54A
- Kd: ~43 nM

B12: target 1 MT 5'PFS GCG 3'PFS CUG (mixed)
RNA 1: B1 RNA 1
RNA 2: B1 RNA 2 with G28C, C29G, G52C, C53U, U54G
- Kd: 10.7 ± 1.8 nM

B13: target 1 MT 5'PFS AAA 3'PFS UCG (mixed)
RNA 1: B1 RNA 1
RNA 2: B1 RNA 2 with G27A, G28A, C29A, G52U, U54G
- Kd: 15.2 ± 3.7 nM

B14: target 1 MT 5'PFS GGU 3'PFS UCU (mixed)
RNA 1: B1 RNA 1
RNA 2: B1 RNA 2 with C29U, G52U
- Kd: 34 ± 8.5 nM

B15: target 1 MT 5'PFS UCC 3'PFS UAU (mixed)
RNA 1: B1 RNA 1
RNA 2: B1 RNA 2 with G27U, G28C, G52U, C53A
- Kd: ~12.6 nM

B16: target 1 MT 5'PFS CAA 3'PFS UGA (mixed)
RNA 1: B1 RNA 1
RNA 2: B1 RNA 2 with G27C, G28A, C29A, G52U, C53G, U54A
- Kd: ~41 nM

B17: target 1 MT 5'PFS GGA 3'PFS UGA (mixed)
RNA 1: B1 RNA 1
RNA 2: B1 RNA 2 with C29A, G52U, C53G, U54A
- Kd: 16.2 ± 3.15 nM

B18: target 1 insU 3' of 2,insC 3' of 1 (mixed)
RNA 1: B1 RNA 1
RNA 2: GGGAAUGGAUCCACAUCUACGAAUUCGUACCAUAGAGAGGUUAUCCGCUCUACCCGAGAUCGGAAGAGCACACGU
- Kd: 11.1 ± 0.5 nM

B19: target 1 MT 5'PFS UGC 3'PFS UAU (mixed)
RNA 1: B1 RNA 1
RNA 2: B1 RNA 2 with G27U, G52U, C53A
- Kd: 13.8 ± 5 nM

B20: target 1 MT 5'PFS UUG 3'PFS UUG (mixed)
RNA 1: B1 RNA 1
RNA 2: B1 RNA 2 with G27U, G28U, C29G, G52U, C53U, U54G
- Kd: 18.2 ± 3.2 nM

B21: target 1 MT 5'PFS GAG 3'PFS ACG (mixed)
RNA 1: B1 RNA 1
RNA 2: B1 RNA 2 with G28A, C29G, G52A, U54G
- Kd: 32 ± 8.5 nM

B22: target 1 MT 5'PFS UUA 3'PFS UUA (mixed)
RNA 1: B1 RNA 1
RNA 2: B1 RNA 2 with G27U, G28U, C29A, G52U, C53U, U54A
- Kd: 30.5 ± 5 nM

B23: target 1 MT 5'PFS UUA 3'PFS UUG (mixed)
RNA 1: B1 RNA 1
RNA 2: B1 RNA 2 with G27U, G28U, C29A, G52U, C53U, U54G
- Kd: 11.8 ± 1.2 nM

B24: target 1 insU 3' of 18,insA 3' of 12 (mixed)
RNA 1: B1 RNA 1
RNA 2: GGGAAUGGAUCCACAUCUACGAAUUCGUACCAUAUGAGAGGAUUAUCCGCUCACCGAGAUCGGAAGAGCACACGU
- Kd: 63 ± 14 nM

B25: target 1 MT 5'PFS GGA 3'PFS UGC (mixed)
RNA 1: B1 RNA 1
RNA 2: B1 RNA 2 with C29A, G52U, C53G, U54C
- Kd: 8.3 ± 1.1 nM

B26: target 1 MT 5'PFS GCG 3'PFS CUC (mixed)
RNA 1: B1 RNA 1
RNA 2: B1 RNA 2 with G28C, C29G, G52C, C53U, U54C
- Kd: ~43 nM

B27: target 1 MT 5'PFS GCG 3'PFS CUA (mixed)
RNA 1: B1 RNA 1
RNA 2: B1 RNA 2 with G28C, C29G, G52C, C53U, U54A
- Kd: 15.7 ± 3.15 nM

B28: target 1 MT 5'PFS UAU 3'PFS UUC (mixed)
RNA 1: B1 RNA 1
RNA 2: B1 RNA 2 with G27U, G28A, C29U, G52U, C53U, U54C
- Kd: 22.5 ± 6 nM

B29: target 1 MT 5'PFS GCG 3'PFS CUU (mixed)
RNA 1: B1 RNA 1
RNA 2: B1 RNA 2 with G28C, C29G, G52C, C53U
- Kd: 15.6 ± 3.75 nM

B30: target 1 MT 5'PFS UCC 3'PFS UAG (mixed)
RNA 1: B1 RNA 1
RNA 2: B1 RNA 2 with G27U, G28C, G52U, C53A, U54G
- Kd: 49 ± 22.5 nM

B31: target 1 MT 5'PFS UUA 3'PFS UUC (mixed)
RNA 1: B1 RNA 1
RNA 2: B1 RNA 2 with G27U, G28U, C29A, G52U, C53U, U54C
- Kd: 17.5 ± 3.9 nM

B32: target 1 MT 5'PFS GGA 3'PFS AGG (mixed)
RNA 1: B1 RNA 1
RNA 2: B1 RNA 2 with C29A, G52A, C53G, U54G
- Kd: 31 ± 4.5 nM

B33: target 1 del5,del13 (mixed)
RNA 1: B1 RNA 1
RNA 2: GGGAAUGGAUCCACAUCUACGAAUUCGUACCAUAGAGAGUUAUCCCUCACCGAGAUCGGAAGAGCACACGU
- Kd: 11.5 ± 0.9 nM

B34: target 1 MT 5'PFS AAU 3'PFS UGA (mixed)
RNA 1: B1 RNA 1
RNA 2: B1 RNA 2 with G27A, G28A, C29U, G52U, C53G, U54A
- Kd: 61 ± 17 nM

B35: target 1 insA 3' of 13,insU 3' of 7 (mixed)
RNA 1: B1 RNA 1
RNA 2: B18 RNA 2 with G40A, U41G, A43U, U44A, C45U, G47U, U49G, A52C, C53A
- Kd: 11.2 ± 0.8 nM

B36: target 1 MT 5'PFS GAC 3'PFS CCG (mixed)
RNA 1: B1 RNA 1
RNA 2: B1 RNA 2 with G28A, G52C, U54G
- Kd: 13.8 ± 3 nM

B37: target 1 MT 5'PFS GCG 3'PFS ACC (mixed)
RNA 1: B1 RNA 1
RNA 2: B1 RNA 2 with G28C, C29G, G52A, U54C
- Kd: 20 ± 8.5 nM

B38: target 1 insC 3' of 12,insC 3' of 8 (mixed)
RNA 1: B1 RNA 1
RNA 2: B18 RNA 2 with U41C, A43U, U44A, C45U, G47C, U49G, A52C, C53A
- Kd: 32.1 ± 2.8 nM
